Source: US11319530B2, “Host cells and systems for membrane protein expression” (President and Fellows of Harvard College, priority 2015, dated 2022)

B1: FLAG-tagged E. coli DsbAC33A (pFH442: pFH441 C33A-FLAG) (enzyme, UniProt P0AEG4 20-208, looked up)
chain: AQYEDGKQYTTLEKPVAGAPQVLEFFSFFCPHAYQFEEVLHISDNVKKKLPEGVKMTKYHVNFMGGDLGKDLTQAWAVAMALGVEDKVTVPLFEGVQKTQTIRSASDIRDVFINAGIKGEEYDAAWNSFVVKSLVAQQEKAAADVQLRGVPAMFVNGKYQLNPQGMDTSNMDVFVQQYADTVKYLSEKK
notes: by common usage C33 of DsbA is counted on the mature (periplasmic) protein, not on the precursor; Expressed from pBAD43 in E. coli; also called C33A mutant of DsbA; not shown: FLAG tag

Key:
[1] = molecular target: T1, rat VKORc1ΔAAR expressed in FSH231 (Rattus norvegicus, UniProt Q6TEK4, DEL31-33); assay: blue/white agar assay in 384 well plates using the β-Gal^dbs reporter (dose-dependent inhibition of VKORc1); type: cell-based; settings: FIG. 4 Panel A; for dose-dependent inhibition of VKORc1: rat VKORc1ΔAAR expressed in E. coli FSH231 (ΔdsbB, yidCT362I, hsIVC160Y)
T1 construct: expressed in transfected cells; host or cells: E. coli FSH231 (ΔdsbB, yidCT362I, hslVC160Y, malF-lacZ102 reporter), pTrc99a plasmid
T1 sequence (Q6TEK4 with tags, fused parts or gaps DEL31-33): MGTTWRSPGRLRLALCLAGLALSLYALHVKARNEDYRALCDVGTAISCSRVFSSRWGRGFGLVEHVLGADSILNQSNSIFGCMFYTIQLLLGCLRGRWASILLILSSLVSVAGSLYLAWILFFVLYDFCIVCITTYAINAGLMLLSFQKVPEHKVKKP

[2] = molecular target: the molecule itself; assay: immunoblot, FIG. 4 Panel C
[3] = molecular target: T2, VKORc1ΔAAR, G60D (Rattus norvegicus, UniProt Q6TEK4, C16A/C85A/C96A/DEL31-33/G60D); assay: motility assay, low agar motility plates of FSH231; type: cell-based; settings: FSH231 co-expressing VKORc1ΔAAR, G60D and DsbAC33A, in the presence of DsbAwt; FIG. 4 Panel B
T2 construct: expressed in transfected cells; host or cells: E. coli FSH231 (ΔdsbB, yidCT362I, hslVC160Y), pTrc99a plasmid, co-transformed with pBAD43 (empty, or carrying DsbA or DsbAC33A)
T2 sequence (Q6TEK4 with tags, fused parts or gaps C16A/DEL31-33/G60D/C85A/C96A): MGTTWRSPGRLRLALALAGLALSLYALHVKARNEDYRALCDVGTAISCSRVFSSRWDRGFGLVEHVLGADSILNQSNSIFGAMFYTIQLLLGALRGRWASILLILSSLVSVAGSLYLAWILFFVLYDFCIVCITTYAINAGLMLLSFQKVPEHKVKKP
Protocol: Bacterial motility was assayed by stabbing a colony into 0.3% minimal medium Agar plates containing M63 salts, 0.2% Glucose, IPTG, and carbenicillin. Motility was examined after two days of growth at 30 C. When using arabinose to induce expression from pBAD promoter, 0.5% glycerol was used instead of glucose in addition to 0.1% NZ to enhance motility.
As expected, the function of VKORc1ΔAAR in disulfide bond formation was dependent on E. coli DsbA, the presumed substrate of the now functional VKORc1ΔAAR. To determine whether VKORc1ΔAAR interacts directly with DsbA in vivo, we used a C33A mutant of DsbA which forms a detectable stable complex with DsbB and asked whether a similar scenario occurs with VKORc1ΔAAR (23). We used the highly expressed VKORc1ΔAAR, G60D lacking all nonessential cysteines expressed in a ΔdsbB, yidCT362I, hsIVC160Y strain (FSH231). […] When TCA-precipitated proteins of FSH231 strain expressing both T7-tagged VKORc1ΔAAR, G60D and FLAG-tagged DsbAC33A are run on a non-reducing SDS-PAGE and probed by either anti-T7 or FLAG tags antibodies, a VKORc1-DsbA complex band around 40 kDa can be seen (FIG. 4., Panel C) that is DTT-sensitive. The complex formation is also observed when using VKORc1 lacking C51, but disappears in the absence of C46 or C132, unless the removal of C132 is accompanied by the removal of C51 (FIG. 4., Panel C). […]

[4] = molecular target: B1; assay: non-reducing SDS-PAGE of TCA-precipitated proteins of FSH231, immunoblot with anti-T7 or anti-FLAG; mixed disulfide
[5] = molecular target: B1; assay: non-reducing SDS-PAGE immunoblot; mixed disulfide
[6] = molecular target: B1; assay: non-reducing SDS-PAGE of TCA-precipitated proteins of FSH231, immunoblot with anti-T7 or anti-FLAG

Molecule: O=C1c2ccccc2C(=O)C1c1ccc(Br)cc1 [bromindione]
- dose-dependent inhibition of VKORc1 [1]: inhibited
- inhibitory effect compared with warfarin ([1]; rat VKORc1ΔAAR expressed in E. coli FSH231): stronger inhibitory effects than warfarin

Molecule: CC(=O)CC(c1ccccc1)c1c(O)c2ccccc2oc1=O (stereo not drawn) [warfarin]
- dose-dependent inhibition of VKORc1 [1]: inhibited

Molecule: B1
- binding result [2]: binds

B2: DsbAC33A: C33A mutant of E. coli DsbA, expressed from pBAD43; forms mixed disulfide with VKORc1 (protein)
chain: AQYEDGKQYTTLEKPVAGAPQVLEFFSFFCPHAYQFEEVLHISDNVKKKLPEGVKMTKYHVNFMGGDLGKDLTQAWAVAMALGVEDKVTVPLFEGVQKTQTIRSASDIRDVFINAGIKGEEYDAAWNSFVVKSLVAQQEKAAADVQLRGVPAMFVNGKYQLNPQGMDTSNMDVFVQQYADTVKYLSEKK
modifications: left off: small tags and cut ends
- inhibition of VKORc1 function (motility) [3]: inhibits the function of VKORc1

B3: T7-tagged rat VKORc1ΔAAR, G60D lacking all nonessential cysteines (pFH436: rat VKORc1 C16A ΔA31AR G60D C85A C96A-linker-T7 tag) (enzyme)
chain: MGTTWRSPGRLRLALALAGLALSLYALHVKARNEDYRALCDVGTAISCSRVFSSRWDRGFGLVEHVLGADSILNQSNSIFGAMFYTIQLLLGALRGRWASILLILSSLVSVAGSLYLAWILFFVLYDFCIVCITTYAINAGLMLLSFQKVPEHKVKKPGTGGGSGGGSGS
notes: Expressed in E. coli FSH231 (ΔdsbB, yidCT362I, hslVC160Y); not shown: C-terminal T7 tag
- binding result [4]: binds

B4: rat VKORc1 C16A C51A ΔA31AR G60D C85A C96A C132A-linker-T7 tag (pFH440) (enzyme)
chain: MGTTWRSPGRLRLALALAGLALSLYALHVKARNEDYRALCDVGTAISASRVFSSRWDRGFGLVEHVLGADSILNQSNSIFGAMFYTIQLLLGALRGRWASILLILSSLVSVAGSLYLAWILFFVLYDFAIVCITTYAINAGLMLLSFQKVPEHKVKKPGTGGGSGGGSGS
notes: also called VKORc1 with removal of C132 accompanied by the removal of C51; not shown: C-terminal T7 tag
- binding result [5]: binds

B5: rat VKORc1 C16A C51A ΔA31AR G60D C85A C96A-linker-T7 tag (pFH438) (enzyme)
chain: MGTTWRSPGRLRLALALAGLALSLYALHVKARNEDYRALCDVGTAISASRVFSSRWDRGFGLVEHVLGADSILNQSNSIFGAMFYTIQLLLGALRGRWASILLILSSLVSVAGSLYLAWILFFVLYDFCIVCITTYAINAGLMLLSFQKVPEHKVKKPGTGGGSGGGSGS
notes: also called VKORc1 lacking C51; not shown: C-terminal T7 tag
- binding result [5]: binds

B6: rat VKORc1 C16A ΔA31AR G60D C85A C96A C132A-linker-T7 tag (pFH439) (enzyme)
chain: MGTTWRSPGRLRLALALAGLALSLYALHVKARNEDYRALCDVGTAISCSRVFSSRWDRGFGLVEHVLGADSILNQSNSIFGAMFYTIQLLLGALRGRWASILLILSSLVSVAGSLYLAWILFFVLYDFAIVCITTYAINAGLMLLSFQKVPEHKVKKPGTGGGSGGGSGS
notes: also called VKORc1 in the absence of C132; not shown: C-terminal T7 tag
- binding result [6]: no binding
